Here are results for five substances from the supplement of paper PMC5998384.

Series [1] has as its system HeLa Kyoto. Put plainly: solubility in G1/S (NP-40 vs SDS abundance) (log2 ratio); higher = more soluble. To be noted: cell cycle stage: G1/S.
Series [2] deals with HeLa Kyoto. Put plainly: thermal stability score vs G1/S (z-score of summed log2 fold changes over temperatures); higher = more thermally stable than in G1/S.
Series [3] deals with HeLa Kyoto. As to the kind of experiment: melting temperature (median over replicates), in situ; higher = more thermally stable.
Series [4] concerns HeLa Kyoto. As to the kind of experiment: solubility change mitosis vs G1/S (difference of NP-40 vs SDS log2 ratios) (log2 ratio difference); higher = more soluble in mitosis.
Setting [5] is: cell cycle stage: early G1 (4.5 h after nocodazole release).
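Wherever melting temperature (median over replicates), in situ is given: HeLa Kyoto cells synchronized by double thymidine or nocodazole block, proteins quantified by TMT10plex mass spectrometry, three independent biological replicates.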
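Wherever solubility change mitosis vs G1/S (difference of NP-40 vs SDS log2 ratios) is given: synchronized HeLa Kyoto cells (double thymidine block for G1/S, nocodazole release for mitosis), protein amounts in NP-40 versus SDS lysates quantified by mass spectrometry, three biological replicates.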
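Wherever solubility in G1/S (NP-40 vs SDS abundance) is given: HeLa Kyoto cells arrested at G1/S by double thymidine block, proteins quantified by TMT10plex mass spectrometry in mild NP-40 versus SDS extracts, three biological replicates.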
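Wherever thermal stability score vs G1/S (z-score of summed log2 fold changes over temperatures) is given: synchronized HeLa Kyoto cells, proteins quantified by TMT10plex mass spectrometry, three biological replicates, mitosis taken 0.5 h after nocodazole release, G1/S directly after double thymidine block.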

PTBP3, sequence (chain, as listed by the source): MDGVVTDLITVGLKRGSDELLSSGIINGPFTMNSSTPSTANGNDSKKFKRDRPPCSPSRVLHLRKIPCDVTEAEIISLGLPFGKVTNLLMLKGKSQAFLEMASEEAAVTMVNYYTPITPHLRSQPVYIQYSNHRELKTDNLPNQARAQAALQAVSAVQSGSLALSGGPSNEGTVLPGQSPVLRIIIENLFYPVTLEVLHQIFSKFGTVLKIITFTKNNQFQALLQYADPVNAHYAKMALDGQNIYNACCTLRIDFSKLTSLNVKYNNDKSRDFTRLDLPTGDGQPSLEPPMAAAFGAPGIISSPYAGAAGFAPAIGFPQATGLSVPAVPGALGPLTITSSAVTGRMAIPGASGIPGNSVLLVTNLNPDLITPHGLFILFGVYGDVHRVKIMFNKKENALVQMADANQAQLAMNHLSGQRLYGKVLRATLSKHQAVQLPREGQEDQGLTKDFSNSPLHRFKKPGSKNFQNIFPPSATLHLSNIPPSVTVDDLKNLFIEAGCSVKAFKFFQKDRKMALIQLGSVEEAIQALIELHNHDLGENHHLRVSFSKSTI

For “MSFRKVVRQSKFRHVFGQPVKNDQCYEDIRVSRVTWDSTFCAVNPKFLAVIVEASGGGAFLVLPLSKTGRIDKAYPTVCGHTGPVLDIDWCPHNDEVIASGSEDCTVMVWQIPENGLTSPLTEPVVVLEGHTKRVGIIAWHPTARNVLLSAGCDNVVLIWNVGTAEELYRLDSLHPDLIYNVSWNHNGSLFCSACKDKSVRIIDPRRGTLVAEREKAHEGARPMRAIFLADGKVFTTGFSRMSERQLALWDPENLEEPMALQELDSSNGALLPFYDPDTSVVYVCGKGDSSIRYFEITEEPPYIHFLNTFTSKEPQRGMGSMPKRGLEVSKCEIARFYKLHERKCEPIVMTVPRKSDLFQDDLYPDTAGPEAALEAEEWVSGRDADPILISLREAYVPSKQRDLKISRRNVLSDSRPAMAPGSSHLGAPASTTTAADATPSGSLARAGEAGKLEEVMQELRALRALVKEQGDRICRLEEQLGRMENGDA [CORO1B]”, the “solubility in G1/S (log2)” value in the series on HeLa Kyoto [1] is -0.0585. The thermal stability score in the series with HeLa Kyoto [2] (setting [5]) is -0.395; in the series with HeLa Kyoto [2] (cell cycle stage: mitosis), -0.683. Further, the melting temperature was 51.1 °C with HeLa Kyoto [3] (cell cycle stage: G1/S) and 50.6 °C in the series on HeLa Kyoto [3] (cell cycle stage: mitosis). Also, the “solubility change mitosis (log2)” value with HeLa Kyoto [4] is -0.0904.
Consider “MEETIKDPPTSAVLLDHCHFSQVIFNSVEKFYIPGGDVTCHYTFTQHFIPRRKDWIGIFRVGWKTTREYYTFMWVTLPIDLNNKSAKQQEVQFKAYYLPKDDEYYQFCYVDEDGVVRGASIPFQFRPENEEDILVVTTQGEVEEIEQHNKELCKENQELKDSCISLQKQNSDMQAELQKKQEELETLQSINKKLELKVKEQKDYWETELLQLKEQNQKMSSENEKMGIRVDQLQAQLSTQEKEMEKLVQGDQDKTEQLEQLKKENDHLFLSLTEQRKDQKKLEQTVEQMKQNETTAMKKQQELMDENFDLSKRLSENEIICNALQRQKERLEGENDLLKRENSRLLSYMGLDFNSLPYQVPTSDEGGARQNPGLAYGNPYSGIQESSSPSPLSIKKCPICKADDICDHTLEQQQMQPLCFNCPICDKIFPATEKQIFEDHVFCHSL [CALCOCO2]”, for which the “solubility in G1/S (log2)” value in the series on HeLa Kyoto [1] is 0.203. The figures for the thermal stability score in the series with HeLa Kyoto [2] (setting [5]) and in the series on HeLa Kyoto [2] (cell cycle stage: mitosis) were -0.458 and -0.851, respectively. Also, the melting temperature in the series with HeLa Kyoto [3] (cell cycle stage: G1/S) is 50.5 °C; in the series with HeLa Kyoto [3] (cell cycle stage: mitosis), 51 °C. Further, in the series on HeLa Kyoto [4], the “solubility change mitosis (log2)” value was -0.0722.
Take “MPLTGVEPARMNRKKGDKGFESPRPYKLTHQVVCINNINFQRKSVVGFVELTIFPTVANLNRIKLNSKQCRIYRVRINDLEAAFIYNDPTLEVCHSESKQRNLNYFSNAYAAAVSAVDPDAGNGELCIKVPSELWKHVDELKVLKIHINFSLDQPKGGLHFVVPSVEGSMAERGAHVFSCGYQNSTRFWFPCVDSYSELCTWKLEFTVDAAMVAVSNGDLVETVYTHDMRKKTFHYMLTIPTAASNISLAIGPFEILVDPYMHEVTHFCLPQLLPLLKHTTSYLHEVFEFYEEILTCRYPYSCFKTVFIDEAYVEVAAYASMSIFSTNLLHSAMIIDETPLTRRCLAQSLAQQFFGCFISRMSWSDEWVLKGISGYIYGLWMKKTFGVNEYRHWIKEELDKIVAYELKTGGVLLHPIFGGGKEKDNPASHLHFSIKHPHTLSWEYYSMFQCKAHLVMRLIENRISMEFMLQVFNKLLSLASTASSQKFQSHMWSQMLVSTSGFLKSISNVSGKDIQPLIKQWVDQSGVVKFYGSFAFNRKRNVLELEIKQDYTSPGTQKYVGPLKVTVQELDGSFNHTLQIEENSLKHDIPCHSKSRRNKKKKIPLMNGEEVDMDLSAMDADSPLLWIRIDPDMSVLRKVEFEQADFMWQYQLRYERDVVAQQESILALEKFPTPASRLALTDILEQEQCFYRVRMSACFCLAKIANSMVSTWTGPPAMKSLFTRMFCCKSCPNIVKTNNFMSFQSYFLQKTMPVAMALLRDVHNLCPKEVLTFILDLIKYNDNRKNKFSDNYYRAEMIDALANSVTPAVSVNNEVRTLDNLNPDVRLILEEITRFLNMEKLLPSYRHTITVSCLRAIRVLQKNGHVPSDPALFKSYAEYGHFVDIRIAALEAVVDYTKVDRSYEELQWLLNMIQNDPVPYVRHKILNMLTKNPPFTKNMESPLCNEALVDQLWKLMNSGTSHDWRLRCGAVDLYFTLFGLSRPSCLPLPELGLVLNLKEKKAVLNPTIIPESVAGNQEAANNPSSHPQLVGFQNPFSSSQDEEEIDMDTVHDSQAFISHHLNMLERPSTPGLSKYRPASSRSALIPQHSAGCDSTPTTKPQWSLELARKGTGKEQAPLEMSMHPAASAPLSVFTKESTASKHSDHHHHHHHEHKKKKKKHKHKHKHKHKHDSKEKDKEPFTFSSPASGRSIRSPSLSD [TAF2]”: in the series with HeLa Kyoto [1], the “solubility in G1/S (log2)” value is -0.657. For the same substance, the thermal stability score in the series with HeLa Kyoto [2] (setting [5]) worked out at 0.286; in the series with HeLa Kyoto [2] (cell cycle stage: mitosis), 0.175. Also, the melting temperature was 49.6 °C in the series with HeLa Kyoto [3] (cell cycle stage: G1/S) and 50.2 °C with HeLa Kyoto [3] (cell cycle stage: mitosis). In addition, the “solubility change mitosis (log2)” value in the series with HeLa Kyoto [4] turned out to be 0.123.
For the substance PTBP3, the “solubility in G1/S (log2)” value in the series on HeLa Kyoto [1] is -0.19. The results for the thermal stability score in the series on HeLa Kyoto [2] (setting [5]) and in the series with HeLa Kyoto [2] (cell cycle stage: mitosis) were 0.736 and 1.3, respectively. Also, the values for the melting temperature with HeLa Kyoto [3] (cell cycle stage: G1/S) and with HeLa Kyoto [3] (cell cycle stage: mitosis) were 46.6 °C and 48 °C, respectively. For the same substance, the “solubility change mitosis (log2)” value in the series with HeLa Kyoto [4] worked out at 0.15.
As to “MNYDSQQPPLPPLPYAGCRRASGFPALGRGGTVPVGVWGGAGQGREGRSWGEGPRGPGLGRRDLSSADPAVLGATMESRCYGCAVKFTLFKKEYGCKNCGRAFCSGCLSFSAAVPRTGNTQQKVCKQCHEVLTRGSSANASKWSPPQNYKKRVAALEAKQKPSTSQSQGLTRQDQMIAERLARLRQENKPKLVPSQAEIEARLAALKDERQGSIPSTQEMEARLAALQGRVLPSQTPQPAHHTPDTRTQAQQTQDLLTQLAAEVAIDESWKGGGPAASLQNDLNQGGPGSTNSKRQANWSLEEEKSRLLAEAALELREENTRQERILALAKRLAMLRGQDPERVTLQDYRLPDSDDDEDEETAIQRVLQQLTEEASLDEASGFNIPAEQASRPWTQPRGAEPEAQDVDPRPEAEEEELPWCCICNEDATLRCAGCDGDLFCARCFREGHDAFELKEHQTSAYSPPRAGQEH [ZFYVE19]”, the “solubility in G1/S (log2)” value in the series with HeLa Kyoto [1] turned out to be 0.428. The thermal stability score in the series with HeLa Kyoto [2] (setting [5]) was -2.39; with HeLa Kyoto [2] (cell cycle stage: mitosis), -1.86. Also, the melting temperature in the series with HeLa Kyoto [3] (cell cycle stage: G1/S) came out at 54.2 °C; in the series on HeLa Kyoto [3] (cell cycle stage: mitosis), 52.9 °C. Moreover, the “solubility change mitosis (log2)” value with HeLa Kyoto [4] was -0.237.
